Experimental data taken from patent publication US20220363770A1 (Amgen, published 2022).
Positions count from the first letter of the chain named. Each block holds one binder with its values, some of them ahead of it.

Experiments:
human CGRP receptor = human CGRP receptor (human, UniProt Q16602 23-461; O60894 27-148); assay: cell-based or functional assay
human PAC1 receptor = target: T1, human PAC1 receptor (human, UniProt P41586 24-468); assay: cell-based or functional assay
T1 sequence: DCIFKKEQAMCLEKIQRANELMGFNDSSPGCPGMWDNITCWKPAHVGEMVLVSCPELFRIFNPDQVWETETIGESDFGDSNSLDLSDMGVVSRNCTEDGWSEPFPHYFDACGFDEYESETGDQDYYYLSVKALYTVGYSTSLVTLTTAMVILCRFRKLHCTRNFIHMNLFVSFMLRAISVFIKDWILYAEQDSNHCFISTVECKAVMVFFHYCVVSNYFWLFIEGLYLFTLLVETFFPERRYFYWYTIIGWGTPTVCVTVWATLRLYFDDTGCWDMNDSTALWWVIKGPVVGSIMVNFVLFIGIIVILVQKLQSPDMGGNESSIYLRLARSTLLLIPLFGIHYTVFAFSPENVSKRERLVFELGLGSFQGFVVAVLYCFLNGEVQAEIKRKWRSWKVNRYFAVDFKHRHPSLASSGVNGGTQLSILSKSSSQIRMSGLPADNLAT

Sequence of human CGRP receptor (Q16602 23-461 limits assumed, chain 1 of 2): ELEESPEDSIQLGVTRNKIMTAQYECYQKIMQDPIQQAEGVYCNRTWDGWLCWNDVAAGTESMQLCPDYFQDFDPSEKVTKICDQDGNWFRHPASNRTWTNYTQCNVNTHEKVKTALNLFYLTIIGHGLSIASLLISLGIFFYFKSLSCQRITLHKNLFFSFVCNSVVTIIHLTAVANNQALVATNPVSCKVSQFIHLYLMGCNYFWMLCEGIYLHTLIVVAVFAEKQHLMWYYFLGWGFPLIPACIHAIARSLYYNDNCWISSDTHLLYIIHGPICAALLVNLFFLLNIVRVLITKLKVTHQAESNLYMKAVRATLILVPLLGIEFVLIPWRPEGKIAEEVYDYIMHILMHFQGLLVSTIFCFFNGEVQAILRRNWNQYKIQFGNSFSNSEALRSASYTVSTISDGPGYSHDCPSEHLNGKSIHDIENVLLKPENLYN
Sequence of human CGRP receptor (O60894 27-148 limits assumed, chain 2 of 2): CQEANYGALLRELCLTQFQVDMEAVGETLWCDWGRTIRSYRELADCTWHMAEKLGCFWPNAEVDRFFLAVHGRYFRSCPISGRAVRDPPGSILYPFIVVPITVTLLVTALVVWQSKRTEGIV

Fold-improvement over 4E4 Ab (human CGRP receptor): 1.4 fold | IC50 (human CGRP receptor): 0.42 nM | Fold-improvement over 29G4v22 Ab (human PAC1 receptor): 6.4 fold | IC50 (human PAC1 receptor): 0.97 nM
B1: iPS:454761 (bispecific antibody, human IgG1, kappa, lambda, N297G)
light 1: QSVLTQPPSVSAAPGQKVTISCSGSYSNIGRYSVSWYQQLPGTAPKLLIYDNNKRPSGIPDRFSGSKSGTSATLGITGLQTGDEADYYCGTWDSRLSAVVFGGGTKLTVLGQPKAAPSVTLFPPSSEELQANKATLVCLISDFYPGAVTVAWKADSSPVKAGVETTTPSKQSNNKYAAKSYLSLTPEQWKSHRSYSCQVTHEGSTVEKTVAPTECS
heavy 1: QVQLVESGGGVVQPGRSLRLSCAASGFTFSSFGMHWVRQAPGKGLEWVAVISFDGSIKYSVDSVKGRFTISRDNSKNTLFLQMNSLRAEDTAVYYCARDRLNYYESSGYYHYKYYGMAVWGQGTTVTVSSASTKGPSVFPLAPSSKSTSGGTAALGCLVKDYFPEPVTVSWNSGALTSGVHTFPAVLQSSGLYSLESVVTVPSSSLGTQTYICNVNHKPSNTKVDKKVEPKSCDKTHTCPPCPAPELLGGPSVFLFPPKPKDTLMISRTPEVTCVVVDVSHEDPEVKFNWYVDGVEVHNAKTKPCEEQYGSTYRCVSVLTVLHQDWLNGKEYKCKVSNKALPAPIEKTISKAKGQPREPQVYTLPPSRKKMTKNQVSLTCLVKGFYPSDIAVEWESNGQPENNYKTTPPVLKSDGSFFLYSKLTVDKSRWQQGNVFSCSVMHEALHNHYTQKSLSLSPGK
light 2: EIVLTQSPATLSLSPGERATLSCRASKSVGRSLHWYQQKPGQAPRLLIKYASQSLSGIPARFSGSGSGTDFTLTISSLEPEDFAVYYCHQSSRLPFTFGPGTKVDIKRTVAAPSVFIFPPSDEQLKSGTASVVCLLNNFYPREAKVQWKVDNALQSGNSQESVTEQDSKDSTYSLESTLTLSKADYEKHKVYACEVTHQGLSSPVTKSFNRGEC
heavy 2: not shown

Fold-improvement over 4E4 Ab (human CGRP receptor): 0.8 fold | IC50 (human CGRP receptor): 0.64 nM | Fold-improvement over 29G4v22 Ab (human PAC1 receptor): 4 fold | IC50 (human PAC1 receptor): 2.01 nM
B2: iPS:454809 (bispecific antibody, human IgG1, kappa, lambda, N297G)
light 1: B1 light 1 with Y26R, R31I, Y32K, S33A
heavy 1: B1 heavy 1
light 2: B1 light 2 with S28A, R31F, R93F
heavy 2: not shown

Fold-improvement over 4E4 Ab (human CGRP receptor): 1.1 fold | IC50 (human CGRP receptor): 0.47 nM | Fold-improvement over 29G4v22 Ab (human PAC1 receptor): 4.6 fold | IC50 (human PAC1 receptor): 1.43 nM
B3: iPS:454785 (bispecific antibody, human IgG1, kappa, lambda, N297G)
light 1: B1 light 1
heavy 1: B1 heavy 1
light 2: B1 light 2 with R31W
heavy 2: not shown

Fold-improvement over 4E4 Ab (human CGRP receptor): 0.9 fold | IC50 (human CGRP receptor): 0.56 nM | Fold-improvement over 29G4v22 Ab (human PAC1 receptor): 5.4 fold | IC50 (human PAC1 receptor): 1.48 nM
B4: iPS:454807 (bispecific antibody, human IgG1, kappa, lambda, N297G)
light 1: B1 light 1 with Y26R, R31I, Y32K, S33A
heavy 1: B1 heavy 1
light 2: B1 light 2 with R31Q
heavy 2: not shown

Fold-improvement over 4E4 Ab (human CGRP receptor): 1.2 fold | IC50 (human CGRP receptor): 0.41 nM | Fold-improvement over 29G4v22 Ab (human PAC1 receptor): 9 fold | IC50 (human PAC1 receptor): 0.71 nM
B5: iPS:454767 (bispecific antibody, human IgG1, kappa, lambda, N297G)
light 1: B1 light 1
heavy 1: B1 heavy 1
light 2: B1 light 2 with K27Q
heavy 2: not shown

Fold-improvement over 4E4 Ab (human CGRP receptor): 1 fold | IC50 (human CGRP receptor): 0.53 nM | Fold-improvement over 29G4v22 Ab (human PAC1 receptor): 2.8 fold | IC50 (human PAC1 receptor): 2.85 nM
B6: iPS:454811 (bispecific antibody, human IgG1, kappa, lambda, N297G)
light 1: B1 light 1 with Y26R, R31I, Y32K, S33A
heavy 1: B1 heavy 1
light 2: EIVLTQSPATLSLSPGERATLSCRASRAVSNLHWYQQKPGQAPRLLIKYASQSLSGIPARFSGSGSGTDFTLTISSLEPEDFAVYYCHQSSYLPFTFGPGTKVDIKRTVAAPSVFIFPPSDEQLKSGTASVVCLLNNFYPREAKVQWKVDNALQSGNSQESVTEQDSKDSTYSLESTLTLSKADYEKHKVYACEVTHQGLSSPVTKSFNRGEC
heavy 2: not shown

Fold-improvement over 4E4 Ab (human CGRP receptor): 1.8 fold | IC50 (human CGRP receptor): 0.27 nM | Fold-improvement over 29G4v22 Ab (human PAC1 receptor): 9.5 fold | IC50 (human PAC1 receptor): 0.69 nM
B7: iPS:454787 (bispecific antibody, human IgG1, kappa, lambda, N297G)
light 1: B1 light 1
heavy 1: B1 heavy 1
light 2: B1 light 2 with R31W
heavy 2: not shown

Fold-improvement over 4E4 Ab (human CGRP receptor): 2.6 fold | IC50 (human CGRP receptor): 0.2 nM | Fold-improvement over 29G4v22 Ab (human PAC1 receptor): 5.4 fold | IC50 (human PAC1 receptor): 1.21 nM
B8: iPS:454797 (bispecific antibody, human IgG1, kappa, lambda, N297G)
light 1: B1 light 1 with Y26R, R31I, Y32K, S33A
heavy 1: B1 heavy 1
light 2: B1 light 2 with K27R, R31L, S32A, R93F
heavy 2: not shown

Fold-improvement over 4E4 Ab (human CGRP receptor): 1.6 fold | IC50 (human CGRP receptor): 0.32 nM | Fold-improvement over 29G4v22 Ab (human PAC1 receptor): 4.1 fold | IC50 (human PAC1 receptor): 1.59 nM
B9: iPS:454799 (bispecific antibody, human IgG1, kappa, lambda, N297G)
light 1: B1 light 1 with Y26R, R31I, Y32K, S33A
heavy 1: B1 heavy 1
light 2: B1 light 2 with R31Q
heavy 2: not shown

Fold-improvement over 4E4 Ab (human CGRP receptor): 1.5 fold | IC50 (human CGRP receptor): 0.32 nM | Fold-improvement over 29G4v22 Ab (human PAC1 receptor): 8.5 fold | IC50 (human PAC1 receptor): 0.75 nM
B10: iPS:454763 (bispecific antibody, human IgG1, kappa, lambda, N297G)
light 1: B1 light 1
heavy 1: B1 heavy 1
light 2: B1 light 2 with K27Q
heavy 2: not shown

Fold-improvement over 4E4 Ab (human CGRP receptor): 1.2 fold | IC50 (human CGRP receptor): 0.44 nM | Fold-improvement over 29G4v22 Ab (human PAC1 receptor): 8.7 fold | IC50 (human PAC1 receptor): 0.92 nM
B11: iPS:454803 (bispecific antibody, human IgG1, kappa, lambda, N297G)
light 1: B1 light 1 with Y26R, R31I, Y32K, S33A
heavy 1: B1 heavy 1
light 2: B1 light 2 with R31W
heavy 2: not shown

Fold-improvement over 4E4 Ab (human CGRP receptor): 0.9 fold | IC50 (human CGRP receptor): 0.57 nM | Fold-improvement over 29G4v22 Ab (human PAC1 receptor): 7.7 fold | IC50 (human PAC1 receptor): 0.83 nM
B12: iPS:454773 (bispecific antibody, human IgG1, kappa, lambda, N297G)
light 1: B1 light 1
heavy 1: B1 heavy 1
light 2: B1 light 2 with S28A, R31W
heavy 2: not shown

Fold-improvement over 4E4 Ab (human CGRP receptor): 1.3 fold | IC50 (human CGRP receptor): 0.39 nM | Fold-improvement over 29G4v22 Ab (human PAC1 receptor): 6 fold | IC50 (human PAC1 receptor): 1.09 nM
B13: iPS:454793 (bispecific antibody, human IgG1, kappa, lambda, N297G)
light 1: B1 light 1 with Y26R, R31I, Y32K, S33A
heavy 1: B1 heavy 1
light 2: B1 light 2 with R31Q
heavy 2: not shown

Fold-improvement over 4E4 Ab (human CGRP receptor): 1.7 fold | IC50 (human CGRP receptor): 0.29 nM | Fold-improvement over 29G4v22 Ab (human PAC1 receptor): 5.5 fold | IC50 (human PAC1 receptor): 1.19 nM
B14: iPS:454789 (bispecific antibody, human IgG1, kappa, lambda, N297G)
light 1: B1 light 1
heavy 1: B1 heavy 1
light 2: B1 light 2 with R31W
heavy 2: not shown

Fold-improvement over 4E4 Ab (human CGRP receptor): 1.4 fold | IC50 (human CGRP receptor): 0.37 nM | Fold-improvement over 29G4v22 Ab (human PAC1 receptor): 7.6 fold | IC50 (human PAC1 receptor): 0.84 nM
B15: iPS:454771 (bispecific antibody, human IgG1, kappa, lambda, N297G)
light 1: B1 light 1
heavy 1: B1 heavy 1
light 2: B1 light 2
heavy 2: not shown

Fold-improvement over 4E4 Ab (human CGRP receptor): 1.1 fold | IC50 (human CGRP receptor): 0.48 nM | Fold-improvement over 29G4v22 Ab (human PAC1 receptor): 9.1 fold | IC50 (human PAC1 receptor): 0.62 nM
B16: iPS:454783 (bispecific antibody, human IgG1, kappa, lambda, N297G)
light 1: B1 light 1
heavy 1: B1 heavy 1
light 2: B1 light 2 with R31W
heavy 2: not shown

Fold-improvement over 4E4 Ab (human CGRP receptor): 1 fold | IC50 (human CGRP receptor): 0.52 nM | Fold-improvement over 29G4v22 Ab (human PAC1 receptor): 6.9 fold | IC50 (human PAC1 receptor): 1.16 nM
B17: iPS:454805 (bispecific antibody, human IgG1, kappa, lambda, N297G)
light 1: B1 light 1 with Y26R, R31I, Y32K, S33A
heavy 1: B1 heavy 1
light 2: B1 light 2 with R31Q
heavy 2: not shown

Fold-improvement over 4E4 Ab (human CGRP receptor): 1.2 fold | IC50 (human CGRP receptor): 0.44 nM | Fold-improvement over 29G4v22 Ab (human PAC1 receptor): 7.1 fold | IC50 (human PAC1 receptor): 0.79 nM
B18: iPS:454791 (bispecific antibody, human IgG1, kappa, lambda, N297G)
light 1: B1 light 1
heavy 1: B1 heavy 1
light 2: B1 light 2 with R31Y
heavy 2: not shown

Fold-improvement over 4E4 Ab (human CGRP receptor): 1.7 fold | IC50 (human CGRP receptor): 0.32 nM | Fold-improvement over 29G4v22 Ab (human PAC1 receptor): 7.2 fold | IC50 (human PAC1 receptor): 0.78 nM
B19: iPS:454769 (bispecific antibody, human IgG1, kappa, lambda, N297G)
light 1: B1 light 1
heavy 1: B1 heavy 1
light 2: B1 light 2
heavy 2: not shown

Fold-improvement over 4E4 Ab (human CGRP receptor): 1.6 fold | IC50 (human CGRP receptor): 0.34 nM | Fold-improvement over 29G4v22 Ab (human PAC1 receptor): 7.8 fold | IC50 (human PAC1 receptor): 0.71 nM
B20: iPS:454765 (bispecific antibody, human IgG1, kappa, lambda, N297G)
light 1: B1 light 1
heavy 1: B1 heavy 1
light 2: B1 light 2 with K27Q
heavy 2: not shown

Fold-improvement over 4E4 Ab (human CGRP receptor): 1.4 fold | IC50 (human CGRP receptor): 0.38 nM | Fold-improvement over 29G4v22 Ab (human PAC1 receptor): 6.7 fold | IC50 (human PAC1 receptor): 0.83 nM
B21: iPS:454775 (bispecific antibody, human IgG1, kappa, lambda, N297G)
light 1: B1 light 1
heavy 1: B1 heavy 1
light 2: B1 light 2 with R31W
heavy 2: not shown

Fold-improvement over 4E4 Ab (human CGRP receptor): 1.4 fold | IC50 (human CGRP receptor): 0.37 nM | Fold-improvement over 29G4v22 Ab (human PAC1 receptor): 2 fold | IC50 (human PAC1 receptor): 3.26 nM
B22: iPS:454795 (bispecific antibody, human IgG1, kappa, lambda, N297G)
light 1: B1 light 1 with Y26R, R31I, Y32K, S33A
heavy 1: B1 heavy 1
light 2: B1 light 2 with S28A, G30W, R31H, S32N, R93M
heavy 2: not shown

Fold-improvement over 4E4 Ab (human CGRP receptor): 1.2 fold | IC50 (human CGRP receptor): 0.44 nM | Fold-improvement over 29G4v22 Ab (human PAC1 receptor): 4.4 fold | IC50 (human PAC1 receptor): 1.82 nM
B23: iPS:454801 (bispecific antibody, human IgG1, kappa, lambda, N297G)
light 1: B1 light 1 with Y26R, R31I, Y32K, S33A
heavy 1: B1 heavy 1
light 2: B1 light 2 with R31Q
heavy 2: not shown
